Reference: patent publication US20240228629A1 (CITY OF HOPE, published 2024)
Blank lines part the entries; values can stand above or below the binder they belong to.

Legend:
[1] = biological target: T1, EGFRviii on U87-EGFRviii cells (human, UniProt P00533); assay: flow cytometry on U87-EGFRviii cells, 1, 10, 100 ug/ml, anti-Fc Alexa-647 secondary
T1 construct: the U87-EGFRviii cells also carry whatever EGFR the parent U87 line carries; a shift on these cells cannot be split between the two forms
Procedure: The cells were detached by trypsin and incubated with 1, 10, or 100 ug/ml EGFR Ab in 2% BSA in PBS at 4° ° C. After 30 minutes, cells were washed with 2% BSA in PBS. […] The cells were analyzed by flow cytometry after washing.

[2] = biological target: T2, D4-IgA1 (extracellular domain IV of human EGFR fused with human IgA1.Fc) (human); assay: ELISA: EGFR-IgA1 immobilised in microwells, hybridoma culture supernatant, goat anti-mouse IgG.Fc-HRP, OD450
T2 construct: also called EGFR-IgA1; human EGFR-IgA
T2 chain: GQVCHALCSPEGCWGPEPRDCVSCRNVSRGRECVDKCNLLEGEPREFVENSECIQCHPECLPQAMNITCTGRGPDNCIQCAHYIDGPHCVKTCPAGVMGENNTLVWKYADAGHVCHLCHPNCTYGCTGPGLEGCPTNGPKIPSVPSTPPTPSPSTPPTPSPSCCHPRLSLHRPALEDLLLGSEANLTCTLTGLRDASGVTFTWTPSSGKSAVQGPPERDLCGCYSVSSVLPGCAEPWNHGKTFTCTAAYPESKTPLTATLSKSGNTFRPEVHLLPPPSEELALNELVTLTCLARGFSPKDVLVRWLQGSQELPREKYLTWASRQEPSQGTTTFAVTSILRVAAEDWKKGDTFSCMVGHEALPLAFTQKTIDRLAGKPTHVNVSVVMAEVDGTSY

BSA = biological target: T3, BSA (bovine, UniProt P02769); assay: ELISA on coated recombinant proteins, title "Titer of purified mAb"; antibody concentration not given
T3 construct: also called bovine serum albumin

EGFR domain IV [3] = biological target: T4, EGFR domain IV (human, UniProt P00533 505-645); assay: SPR, EGFR domain IV immobilised on CM5 chip, IgG injected
T4 construct: Immobilised on a CM5 chip for SPR; also called domain IV of EGFR; EGFR D4

EGFR domain IV [4] = biological target: T4, EGFR domain IV; assay: SPR, EGFR domain IV immobilised on CM5 chip, IgG injected; Table 18 (second kinetic set, apart from Table 17)
EGFR domain IV [5] = biological target: T4, EGFR domain IV; assay: SPR, EGFR domain IV immobilised on CM5 chip, IgG injected; remark: listed apart in the source
EGFR domain IV [6] = biological target: T4, EGFR domain IV; assay: SPR, EGFR domain IV immobilised on CM5 chip, Fab injected
Procedure: EGFR domain IV was immobilized on a CM5 chip at a density of 500 RU through EDC/NHS coupling. […] In another experiment, EGFR domain IV was again immobilized on a CM5 chip at a density of 500 RU through EDC/NHS coupling. […] The samples were injected at concentrations of 300 nM, 100 nM, 30 nM, 10 nM, and 3 nM (FIGS. 15A-15C). The sensorgram curves were subsequently analyzed.

T3 sequence (P02769 25-607 limits assumed): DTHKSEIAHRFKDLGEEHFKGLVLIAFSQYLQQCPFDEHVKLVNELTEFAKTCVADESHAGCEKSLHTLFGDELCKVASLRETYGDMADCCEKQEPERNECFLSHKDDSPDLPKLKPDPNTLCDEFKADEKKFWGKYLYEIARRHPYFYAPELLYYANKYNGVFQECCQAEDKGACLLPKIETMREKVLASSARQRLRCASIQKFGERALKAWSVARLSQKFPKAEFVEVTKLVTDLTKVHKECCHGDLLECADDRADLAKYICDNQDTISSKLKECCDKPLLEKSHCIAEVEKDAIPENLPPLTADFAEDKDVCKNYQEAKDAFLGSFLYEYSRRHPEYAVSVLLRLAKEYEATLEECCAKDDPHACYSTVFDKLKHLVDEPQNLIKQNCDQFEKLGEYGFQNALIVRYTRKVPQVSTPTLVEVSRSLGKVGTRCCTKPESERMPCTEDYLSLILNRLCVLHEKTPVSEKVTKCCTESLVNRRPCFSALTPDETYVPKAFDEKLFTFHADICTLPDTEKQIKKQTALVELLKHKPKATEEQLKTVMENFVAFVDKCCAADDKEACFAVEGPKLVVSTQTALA

binding result [1]: binds
B1: EGFRD4-34Ab (antibody, V domains shown)
VH: QIQLVQSGPELKKPGETVKISCKASGYTFTNYGMNWVKQAPGKGLKWMGWINTYTGDPTYADDFKGRFAFSLETSASTAYLQINNLKNEDMATYFCARRISTMITTWFAYWGQGTLVTVSA
VL: DIQMTQSPASLSASVGETVTITCRASENIYSYLAWFQQRQGKSPQLLVYNAKTLTEGVPSRFSGSGSGTQFSLKINSLQPEDFGSYYCQHYQVTPYTFGGGTKLEIK
notes: also called Clone # 34

binding result [2]: binds
binding result (BSA): no binding
B2: 5C8 hybridoma clone antibody (mouse, culture supernatant) (antibody, V domains shown)
VH: EVQLQQSGPELVKTGASVKISCKASGYSFTGYYMHWVKQSHGKSLEWIGYINCYNGAINYNQKFKGKATFTVDTSSSTVYMQFNSLTSEDSAVYYCVRAGIHYDYDEAWFAYWGQGTLVTVSA
VL: QAVVTQESALTTSPGETVTLTCRSSTGPVIIRNYANWVQEKPDHLFTGLIGGTNNRAPGVPARFSGSLIGDKAALTITGAQTEDEAIYFCALWYNNHWVFGGGTKLTVL
notes: Mouse antibody from hybridoma supernatant; also called 5C8 clone; Clone 5C8

koff (EGFR domain IV [3]): 0.00013 s⁻¹
kon (EGFR domain IV [3]): 604000 M⁻¹ s⁻¹
Kd (EGFR domain IV [4]): 0.214 nM
Kd (EGFR domain IV [5]): 0.487 nM
koff (EGFR domain IV [5]): 0.000249 s⁻¹
kon (EGFR domain IV [5]): 512000 M⁻¹ s⁻¹
B3: chimeric anti-domain IV EGFR antibody clone 5C8 (EGFRD4-5C8) (antibody, V domains shown)
VH: B2 VH
VL: B2 VL
notes: also called 5C8 IgG; 5C8 mAb

Kd (EGFR domain IV [6]): 170 nM
koff (EGFR domain IV [6]): 0.0305 s⁻¹
kon (EGFR domain IV [6]): 179000 M⁻¹ s⁻¹
B4: EGFRD4-5C8 Fab (Fab, V domains shown)
VH: B2 VH
VL: B2 VL
notes: Fab of clone 5C8
